Experiments:
DHT09 chain C = target: T1, DHT09 chain C; test: co-expression, IMAC, SEC, native MS; chains of one ABC heterotrimer
T1 chain: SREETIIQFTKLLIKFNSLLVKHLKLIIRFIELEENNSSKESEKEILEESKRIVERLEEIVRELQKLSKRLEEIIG
Text: (§1) Genes encoding 85 heterotrimers in a tricistronic expression vector were obtained, and the proteins were expressed in E. coli and purified via IMAC with only one chain having the 6×His-tag. Nine of the designs (FIG. 3a) had monodisperse SEC peaks (FIG. 3b), were almost exclusively ABC by nMS, and had good SAXS fits to the design models (Table 7). […] Eight of the designs are parallel heterotrimers, while DHTO9 is an antiparallel heterotrimer. […] For 3 other designs, only the ABC heterotrimer was determined to form by nMS (when the respective SEC fraction was analyzed) but the heterotrimer SEC peak was preceded by soluble aggregate that would make building with these constructs difficult downstream. We explored the dependence of cooperativity on connectivity between the three chains by changing the positions of the loops across different helices in DHT03, while keeping the rest of the interface intact. […] The ability to sustain alternate loop closures increases the number of heteromeric building blocks available for future nanostructure assembly applications and may enable rigid fusion of functional domains to the different termini available.
(§2) Samples were analyzed by online buffer exchange native mass spectrometry (nMS) to evaluate sample purity and accurately determine oligomeric states⁴². Multiple instruments were used as the analyses were carried out over the duration of the protein design process. The mass spectrometers used for detection were a Q Exactive™ UHMR modified with a surface-induced dissociation device and an Exactive™ Plus EMR modified with a selection quadrupole and a surface-induced dissociation device (Thermo Fisher Scientific)⁴³. The liquid chromatography systems used for the buffer exchange include a Vanquish™ Duo UHPLC and a Dionex™ Ultimate 3000 HPLC (Thermo Fisher Scientific). A heated electrospray ionization source (HESI-II, Thermo Fisher Scientific) with a spray voltage of ˜4 kV was used for ionization.

DHT10 chain C = target: T2, DHT10 chain C; test: as above
T2 chain: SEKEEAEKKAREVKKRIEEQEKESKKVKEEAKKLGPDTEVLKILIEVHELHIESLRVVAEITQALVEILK
Text: as §1, §2

DHT07 chain C = target: T3, DHT07 chain C; test: as above
T3 chain: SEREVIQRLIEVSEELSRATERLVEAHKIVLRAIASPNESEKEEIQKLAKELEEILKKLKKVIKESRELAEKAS
Text: as §1, §2

DHT06 chain C = target: T4, DHT06 chain C; test: as above
T4 chain: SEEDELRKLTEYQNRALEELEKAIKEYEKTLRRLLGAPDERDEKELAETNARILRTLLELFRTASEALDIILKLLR
Text: as §1, §2

DHT04 chain C = target: T5, DHT04 chain C; test: as above
T5 chain: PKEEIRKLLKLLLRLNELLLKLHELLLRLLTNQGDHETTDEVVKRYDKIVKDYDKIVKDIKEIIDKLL
Text: as §1, §2

DHT01 chain C = target: T6, DHT01 chain C; test: co-expression, IMAC and Strep-Tactin pull-down, SEC, native MS; chains of one ABC heterotrimer
T6 chain: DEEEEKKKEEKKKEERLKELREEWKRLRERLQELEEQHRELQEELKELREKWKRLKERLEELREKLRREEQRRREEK
Text: We obtained genes encoding 20 coiled coil designed heterotrimers (DHTs) in a tricistronic E. coli expression vector with one chain having a 6×His-tag and a second chain having Strep-tag II, expressed the proteins, and purified by immobilized metal affinity chromatography (IMAC) and Strep-Tactin pull-down. All designs were soluble and for 6 designs, all three components were observed by liquid chromatography-mass spectrometry (LC-MS) after both pull-down approaches. Of these, 5 eluted as monodisperse peaks by SEC, but only 1 design (DHT01) was an exclusive ABC heterotrimer by native mass spectrometry (nMS) and had good agreement with the design model via small angle X-ray scattering (SAXS) (FIG. 2d, Table 7).
as §2, with “ionization. Protein samples stored in Tris buffer were injected (0.1-2 ug) onto the LC system and exchanged at a flow rate of 100-200 uL*min⁻¹ into 200 mM ammonium acetate (mobile phase) prior to ionization. Buffer exchange columns used include self-packed columns with P6 polyacrylamide gel (Bio-Rad Laboratories) and prototype buffer exchange columns provided by Thermo Fisher Scientific (Sunnyvale, CA). Instrument parameters were optimized to allow for ion transmission while minimizing unintentional ion activation. […]” for “ionization.”

DHT08 chain C = target: T7, DHT08 chain C; test: co-expression, IMAC, SEC, native MS; chains of one ABC heterotrimer
T7 chain: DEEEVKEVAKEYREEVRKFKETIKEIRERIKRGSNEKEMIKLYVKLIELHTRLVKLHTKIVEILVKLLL
Text: as §1, §2

DHT02 chain C = target: T8, DHT02 chain C; test: as above
T8 chain: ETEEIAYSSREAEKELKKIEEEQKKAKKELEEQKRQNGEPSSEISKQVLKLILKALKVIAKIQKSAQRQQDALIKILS
Text: as §1, §2

[1] = target: T9, DHT03_variant_ABC-2 chain C; test: native MS; loop-connectivity variant of DHT03, chains of one ABC heterotrimer
T9 chain: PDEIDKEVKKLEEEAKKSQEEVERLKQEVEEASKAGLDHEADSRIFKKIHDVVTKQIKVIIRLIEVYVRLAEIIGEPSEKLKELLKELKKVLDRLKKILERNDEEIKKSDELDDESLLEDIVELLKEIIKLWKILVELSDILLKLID

[2] = target: T10, DHT03 chain C (SEQ ID NO: 65); test: co-expression, SEC, native MS, SAXS; chains of one ABC heterotrimer
T10 chain: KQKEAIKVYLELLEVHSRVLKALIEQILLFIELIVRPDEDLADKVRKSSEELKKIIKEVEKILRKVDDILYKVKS

B1: DHT09 chain B (designed binder)
chain: SKEEILKLHLEVAEIHIETVKIYLEVIKILIRLIEKNSSKEDERELEEELKELERELEELQKKLEEIRKELQEIEG
DHT09 chain C
  binding result: binds

B2: DHT10 chain B (designed binder)
chain: SELEEEIKRIRKEIEESRRRIEELRKKAQKAREGSSEKEFLQIYIELQKVLIEQIKIYIELLQIIFELQS
DHT10 chain C
  binding result: binds

B3: DHT07 chain B (designed binder)
chain: DREEKLERETEKLEKKIRESQRRMEELRKQIETDPDEKELLEILIRSLRLLEEQLEALRKLNHAAQQLLG
DHT07 chain C
  binding result: binds

B4: DHT06 chain B (designed binder)
chain: SEEDELEKAIREQKKALERLKEAIERYEETLKRGKNEKELAKTNAEILKTLLELFKSQLELAEIILKLLR
DHT06 chain C
  binding result: binds

B5: DHT04 chain B (designed binder)
chain: DEELIIYIIELLLKDDELLLKSLEIILRIIQLQLTSKDKDDGTDKIKKLVDESKKILDDSERLAEELRKIEEKLK
DHT04 chain C
  binding result: binds

B6: DHT01 chain B (designed binder)
chain: SEQERREKAKEEVRELNEEFKEAEKRFRKLQEETKKALEEVEELNQRFEEALEEVERIKRRQK
DHT01 chain C
  binding result: binds

B7: DHT08 chain B (designed binder)
chain: DKEEKIKEILRRVQELRREHEELEERLKELKKELEKSPSQEELKKFIKLAQELIKLTLELIELSLRLIELLLG
DHT08 chain C
  binding result: binds

B8: DHT02 chain B (designed binder)
chain: PQLDKFRDESRYLDKASKEVEDEIKKIEKIIRDADEKSLPEEALQDVVKSVVKVYLKSVKETIKSIELVIELIKVIM
DHT02 chain C
  binding result: binds

## QKEAIKVYLELLEVHSRVLKALIEQIKLFIELIKRK (designed binder) [DHT03_variant_ABC-2 chain B]
[1]
  binding result: binds

B9: DHT03_2arm_A21/Bt18/C chain B (designed binder)
chain: TEEKIAKEISRIAEESKKRIEELARKADNKTTETEVDKAIEKIAKLAREAIKRIEDLAKNLASEEFMARAISAIAELAKKAIEAIYRLADNHTTDTFMAKAIEAIAELAKEAIKAIADLAKNHTTEEFMARAISAIAELAKKAIEAIYRLADNHTTDTFMAKAIEAIAELAKEAIKAIADLAKNHTTEEFMAKAISAIMELAVKAILAIARLASNHTSQTYREKAREAVEKIARTAEKAIEDLAKNITTEEYKERAKKARAIVRVMAEVAKLLIEAVESQEEVERLKQEVEKASKAGLDHEGDSRIFKKIHDVVTKQIKVIIRLIAVYAELVAIIG
[2]
  binding result: binds

Source: patent publication US20240029824A1 (University of Washington, published 2024)
